Results published in paper PMC11389781.

Columns and labels:
[1] = molecular target: human CaV2.2 pore-forming subunit α1B (CACNA1B), wild type (human) (UniProt Q00975)
[2] = molecular target: human CaV2.2 α1B D185C (VSD I labelling variant) (human) (UniProt Q00975)
[3] = molecular target: human CaV2.2 α1B N1266C (VSD III labelling variant) (human) (UniProt Q00975)
[4] = molecular target: human CaV2.2 α1B N1580C (VSD IV labelling variant) (human) (UniProt Q00975)

Gβγ complex of human Gβ1 and Gγ2 (from UniProt P62873 1-340; P59768 1-71)
shift of V0.5 of CaV2.2 pore opening toward positive potentials by coexpressed Gβγ (tail currents, cut-open oocyte voltage clamp, 20 ms pulses) [1]: 14 mV
shift of V0.5 of VSD I activation by coexpressed Gβγ (voltage-clamp fluorometry, ΔF-V) [2]: 21 mV
shift of V0.5 of VSD III activation by coexpressed Gβγ (voltage-clamp fluorometry, ΔF-V); VSD III was not modulated by Gβγ [3]: -0.1 mV
shift of V0.5 of VSD IV activation by coexpressed Gβγ (voltage-clamp fluorometry, ΔF-V); modest inhibition [4]: 13 mV
